From PMC9482650, “Quantitative fragmentomics allow affinity mapping of interactomes” (Nature Communications, 2022)

Assays:
Experiment in all cases: holdup assay
Design in all cases: key: below the threshold = too weak to quantify, mostly under pKd 3.1 to 4
[1] = biological target: T1, APBA1_1, Q02410
T1 sequence (Q02410 651-752, limits assumed, looked up): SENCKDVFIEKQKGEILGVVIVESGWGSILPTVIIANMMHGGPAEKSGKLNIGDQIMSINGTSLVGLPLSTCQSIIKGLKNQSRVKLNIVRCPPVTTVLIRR

[2] = biological target: ARHGEF12, Q9NZN5-2
Sequence of ARHGEF12, Q9NZN5-2 (Q9NZN5 other isoform, or with tags, fused parts or gaps): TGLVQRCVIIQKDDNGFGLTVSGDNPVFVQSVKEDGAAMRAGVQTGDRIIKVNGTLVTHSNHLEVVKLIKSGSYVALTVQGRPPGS

[3] = biological target: DLG1_2, Q12959
Sequence of DLG1_2, Q12959 (Q12959 314-412): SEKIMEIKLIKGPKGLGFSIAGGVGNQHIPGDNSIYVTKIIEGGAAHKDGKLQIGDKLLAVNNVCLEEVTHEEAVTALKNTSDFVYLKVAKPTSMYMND

[4] = biological target: DLG2_3, Q15700
[5] = biological target: DLG5_1, Q8TDM6
Sequence of DLG5_1, Q8TDM6 (Q8TDM6 617-713): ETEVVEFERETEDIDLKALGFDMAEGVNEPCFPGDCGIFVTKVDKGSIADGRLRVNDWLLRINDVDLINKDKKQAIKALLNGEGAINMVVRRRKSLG

[6] = biological target: T2, DVL3, Q92997
T2 sequence (Q92997 244-331, limits assumed, looked up): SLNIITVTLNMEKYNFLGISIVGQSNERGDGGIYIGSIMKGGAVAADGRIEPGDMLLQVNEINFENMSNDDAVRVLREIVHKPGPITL

[7] = biological target: T3, GRIP1_2, Q9Y3R0
T3 sequence (Q9Y3R0 145-248, limits assumed, looked up): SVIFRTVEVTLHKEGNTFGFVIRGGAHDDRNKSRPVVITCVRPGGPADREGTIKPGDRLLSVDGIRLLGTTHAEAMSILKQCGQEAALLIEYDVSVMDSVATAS

[8] = biological target: GRIP2_3, Q9C0E4
Sequence of GRIP2_3, Q9C0E4 (Q9C0E4 238-339): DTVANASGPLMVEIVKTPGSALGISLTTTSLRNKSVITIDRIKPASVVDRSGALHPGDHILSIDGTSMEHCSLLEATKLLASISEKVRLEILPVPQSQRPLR

[9] = biological target: T4, HTRA4, P83105
T4 sequence (P83105 378-476, limits assumed, looked up): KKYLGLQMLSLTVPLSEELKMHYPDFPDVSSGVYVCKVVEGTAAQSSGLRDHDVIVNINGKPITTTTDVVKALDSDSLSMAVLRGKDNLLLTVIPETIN

[10] = biological target: IL16_1, Q14005
Sequence of IL16_1, Q14005 (Q14005 210-306): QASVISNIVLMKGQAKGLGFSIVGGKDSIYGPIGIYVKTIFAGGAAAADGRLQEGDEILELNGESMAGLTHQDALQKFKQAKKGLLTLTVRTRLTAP

[11] = biological target: Inadl_10, Q8NI35
Sequence of Inadl_10, Q8NI35 (Q8NI35 1673-1763): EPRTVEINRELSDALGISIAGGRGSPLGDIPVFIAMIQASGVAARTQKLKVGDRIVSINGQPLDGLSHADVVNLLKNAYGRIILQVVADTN

[12] = biological target: Inadl_8, Q8NI35
Sequence of Inadl_8, Q8NI35 (Q8NI35 1425-1530): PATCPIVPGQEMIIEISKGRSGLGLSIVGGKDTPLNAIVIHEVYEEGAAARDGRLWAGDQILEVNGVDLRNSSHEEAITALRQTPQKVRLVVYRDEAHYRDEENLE

[13] = biological target: LIMK2, P53671
Sequence of LIMK2, P53671 (P53671 143-248): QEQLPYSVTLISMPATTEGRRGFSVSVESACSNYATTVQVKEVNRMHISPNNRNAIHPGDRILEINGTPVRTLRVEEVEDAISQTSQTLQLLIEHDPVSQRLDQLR

[14] = biological target: T5, LIN7C, Q9NUP9
T5 sequence (Q9NUP9 88-185, limits assumed, looked up): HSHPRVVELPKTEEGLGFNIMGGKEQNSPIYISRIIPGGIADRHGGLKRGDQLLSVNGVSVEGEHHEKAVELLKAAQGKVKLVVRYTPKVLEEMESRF

[15] = biological target: MAGI2_2, Q86UL8
Sequence of MAGI2_2, Q86UL8 (Q86UL8 410-522): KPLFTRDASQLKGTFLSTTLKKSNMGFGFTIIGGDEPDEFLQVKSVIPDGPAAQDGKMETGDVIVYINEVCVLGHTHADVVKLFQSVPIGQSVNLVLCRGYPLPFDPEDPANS

[16] = biological target: MAGI2_5, Q86UL8
Sequence of MAGI2_5, Q86UL8 (Q86UL8 915-1017): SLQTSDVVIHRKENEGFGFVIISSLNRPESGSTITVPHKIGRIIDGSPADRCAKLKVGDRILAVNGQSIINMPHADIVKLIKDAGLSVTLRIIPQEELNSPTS

[17] = biological target: MAST2, Q6P0Q8
Sequence of MAST2, Q6P0Q8 (Q6P0Q8 1099-1202): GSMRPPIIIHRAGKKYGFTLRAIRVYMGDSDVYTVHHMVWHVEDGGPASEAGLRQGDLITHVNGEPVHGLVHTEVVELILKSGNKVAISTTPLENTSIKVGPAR

[18] = biological target: NHERF4_1, Q86UT5-2
Sequence of NHERF4_1, Q86UT5-2 (Q86UT5 other isoform, or with tags, fused parts or gaps): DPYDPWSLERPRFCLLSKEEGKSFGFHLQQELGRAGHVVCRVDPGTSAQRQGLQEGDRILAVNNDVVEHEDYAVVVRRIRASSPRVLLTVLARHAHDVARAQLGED

[19] = biological target: NHERF4_4, Q86UT5
Sequence of NHERF4_4, Q86UT5 (Q86UT5 464-550): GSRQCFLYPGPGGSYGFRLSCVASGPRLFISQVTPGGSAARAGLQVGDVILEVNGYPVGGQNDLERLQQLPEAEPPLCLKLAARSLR

[20] = biological target: T6, RAPGEF6, Q8TEU7
T6 sequence (Q8TEU7 525-625, limits assumed, looked up): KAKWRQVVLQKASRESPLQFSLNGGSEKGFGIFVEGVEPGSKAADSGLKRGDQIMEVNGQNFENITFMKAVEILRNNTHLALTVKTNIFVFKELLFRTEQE

[21] = biological target: T7, RHPN1, Q8TCX5
T7 sequence (Q8TCX5 508-602, limits assumed, looked up): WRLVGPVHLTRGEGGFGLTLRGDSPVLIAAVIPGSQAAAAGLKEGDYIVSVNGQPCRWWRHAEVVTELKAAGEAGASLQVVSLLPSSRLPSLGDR

[22] = biological target: T8, SNTA1, Q13424
T8 sequence (Q13424 82-180, limits assumed, looked up): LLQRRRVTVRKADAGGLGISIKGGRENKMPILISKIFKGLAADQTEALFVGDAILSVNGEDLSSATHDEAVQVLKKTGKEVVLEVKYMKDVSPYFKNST

[23] = biological target: T9, SNTB1, Q13884
T9 sequence (Q13884 107-205, limits assumed, looked up): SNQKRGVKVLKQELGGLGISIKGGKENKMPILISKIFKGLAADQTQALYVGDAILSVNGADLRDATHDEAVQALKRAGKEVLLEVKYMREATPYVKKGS

[24] = biological target: T10, SNTG1, Q9NSN8
T10 sequence (Q9NSN8 52-150, limits assumed, looked up): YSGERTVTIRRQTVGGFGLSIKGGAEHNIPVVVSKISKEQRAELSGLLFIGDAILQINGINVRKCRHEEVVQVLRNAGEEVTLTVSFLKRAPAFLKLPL

[25] = biological target: TJP2_1, Q9UDY2
Sequence of TJP2_1, Q9UDY2 (Q9UDY2 24-128): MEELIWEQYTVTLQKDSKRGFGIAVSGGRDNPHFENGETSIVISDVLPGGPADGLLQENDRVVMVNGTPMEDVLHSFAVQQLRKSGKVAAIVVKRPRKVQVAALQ

[26] = biological target: T11, TX1BP3, O14907
T11 sequence (O14907 10-122, limits assumed, looked up): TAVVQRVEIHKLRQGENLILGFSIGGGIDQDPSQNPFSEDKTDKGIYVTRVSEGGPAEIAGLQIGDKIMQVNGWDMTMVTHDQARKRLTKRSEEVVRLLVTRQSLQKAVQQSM

[27] = plain residues with an end cap or a label only (N-terminal biotin on a linker: ahx)
[28] = plain residues with an end cap or a label only (N-terminal biotin on a linker: ttds)
[29] = plain residues with an end cap or a label only (N-terminal biotin on a linker: ado-ado)

SSSNSEDTEM [NHERF3, Q5T2W1]
pKd [1, 27]: below the threshold | pKd [2, 27]: below the threshold | pKd [3, 27]: below the threshold | pKd [4, 27]: below the threshold | pKd [5, 27]: below the threshold | pKd [6, 27]: below the threshold | pKd [7, 27]: below the threshold | pKd [8, 27]: below the threshold | pKd [9, 27]: below the threshold | pKd [10, 27]: below the threshold | pKd [11, 27]: below the threshold | pKd [12, 27]: below the threshold | pKd [13, 27]: below the threshold | pKd [14, 27]: below the threshold | pKd [15, 27]: below the threshold | pKd [16, 27]: below the threshold | pKd [17, 27]: 4.5 | pKd [18, 27]: below the threshold | pKd [19, 27]: below the threshold | pKd [20, 27]: below the threshold | pKd [21, 27]: 3.98 | pKd [22, 27]: below the threshold | pKd [23, 27]: below the threshold | pKd [24, 27]: below the threshold | pKd [25, 27]: below the threshold | pKd [26, 27]: below the threshold

RNCSTNDSLL [ADRB2, P07550]
pKd [1, 27]: 3.63 | pKd [2, 27]: below the threshold | pKd [3, 27]: below the threshold | pKd [4, 27]: below the threshold | pKd [5, 27]: below the threshold | pKd [6, 27]: below the threshold | pKd [7, 27]: below the threshold | pKd [8, 27]: below the threshold | pKd [9, 27]: below the threshold | pKd [10, 27]: below the threshold | pKd [11, 27]: 3.56 | pKd [12, 27]: below the threshold | pKd [13, 27]: below the threshold | pKd [14, 27]: below the threshold | pKd [15, 27]: below the threshold | pKd [16, 27]: below the threshold | pKd [17, 27]: 4.08 | pKd [18, 27]: 3.88 | pKd [19, 27]: below the threshold | pKd [20, 27]: below the threshold | pKd [21, 27]: 3.94 | pKd [22, 27]: below the threshold | pKd [23, 27]: below the threshold | pKd [24, 27]: below the threshold | pKd [25, 27]: below the threshold | pKd [26, 27]: 3.49

DPLTPSRSQL [DGKK, Q5KSL6]
pKd [1, 28]: below the threshold | pKd [2, 28]: 3.86 | pKd [3, 28]: below the threshold | pKd [4, 28]: 3.73 | pKd [5, 28]: below the threshold | pKd [6, 28]: below the threshold | pKd [7, 28]: below the threshold | pKd [8, 28]: below the threshold | pKd [9, 28]: below the threshold | pKd [10, 28]: below the threshold | pKd [11, 28]: below the threshold | pKd [12, 28]: below the threshold | pKd [13, 28]: below the threshold | pKd [14, 28]: below the threshold | pKd [15, 28]: below the threshold | pKd [16, 28]: below the threshold | pKd [17, 28]: 4.36 | pKd [18, 28]: 3.81 | pKd [19, 28]: below the threshold | pKd [20, 28]: below the threshold | pKd [21, 28]: below the threshold | pKd [22, 28]: below the threshold | pKd [23, 28]: below the threshold | pKd [24, 28]: below the threshold | pKd [25, 28]: below the threshold | pKd [26, 28]: below the threshold

QKNKDKEYYV [NRXN3_rs746444206, Q9Y4C0]
pKd [1, 29]: below the threshold | pKd [2, 29]: below the threshold | pKd [3, 29]: below the threshold | pKd [4, 29]: below the threshold | pKd [5, 29]: below the threshold | pKd [6, 29]: 3.85 | pKd [7, 29]: below the threshold | pKd [8, 29]: below the threshold | pKd [9, 29]: below the threshold | pKd [10, 29]: below the threshold | pKd [11, 29]: below the threshold | pKd [12, 29]: below the threshold | pKd [13, 29]: below the threshold | pKd [14, 29]: 4.08 | pKd [15, 29]: 4.02 | pKd [16, 29]: below the threshold | pKd [17, 29]: 3.97 | pKd [18, 29]: below the threshold | pKd [19, 29]: below the threshold | pKd [20, 29]: below the threshold | pKd [21, 29]: below the threshold | pKd [22, 29]: 3.78 | pKd [23, 29]: below the threshold | pKd [24, 29]: 3.53 | pKd [25, 29]: below the threshold | pKd [26, 29]: below the threshold

HSGSYLVTSV [APC, P25054]
pKd [1, 27]: below the threshold | pKd [2, 27]: 5.02 | pKd [3, 27]: 5.21 | pKd [4, 27]: 4.67 | pKd [5, 27]: below the threshold | pKd [6, 27]: below the threshold | pKd [7, 27]: below the threshold | pKd [8, 27]: below the threshold | pKd [9, 27]: 4.51 | pKd [10, 27]: 3.58 | pKd [11, 27]: 3.64 | pKd [12, 27]: 4.84 | pKd [13, 27]: below the threshold | pKd [14, 27]: 3.72 | pKd [15, 27]: 4.18 | pKd [16, 27]: 4.63 | pKd [17, 27]: 5.11 | pKd [18, 27]: below the threshold | pKd [19, 27]: below the threshold | pKd [20, 27]: below the threshold | pKd [21, 27]: 5.16 | pKd [22, 27]: 3.64 | pKd [23, 27]: 4.05 | pKd [24, 27]: 4.23 | pKd [25, 27]: below the threshold | pKd [26, 27]: 5.53
